{"source": "patent US20070286806A1", "about": "“Methods and Compositions for Modulating a Steroid Receptor” (Mount Sinai Hospital, priority 2004, published 2007)", "molecules": {"B1": {"name": "polypyrimidine tract binding protein-associated splicing factor (protein)", "chain": "MSRDRFRSRGGGGGGFHRRGGGGGRGGLHDFRSPPPGMGLNQNRGPMGPGPGQSGPKPPIPPPPPHQQQQQPPPQQPPPQQPPPHQPPPHPQPHQQQQPPPPPQDSSKPVVAQGPGPAPGVGSAPPASSSAPPATPPTSGAPPGSGPGPTPTPPPAVTSAPPGAPPPTPPSSGVPTTPPQAGGPPPPPAAVPGPGPGPKQGPGPGGPKGGKMPGGPKPGGGPGLSTPGGHPKPPHRGGGEPRGGRQHHPPYHQQHHQGPPPGGPGGRSEEKISDSEGFKANLSLLRRPGEKTYTQRCRLFVGNLPADITEDEFKRLFAKYGEPGEVFINKGKGFGFIKLESRALAEIAKAELDDTPMRGRQLRVRFATHAAALSVRNLSPYVSNELLEEAFSQFGPIERAVVIVDDRGRSTGKGIVEFASKPAARKAFERCSEGVFLLTTTPRPVIVEPLEQLDDEDGLPEKLAQKNPMYQKERETPPRFAQHGTFEYEYSQRWKSLDEMEKQQREQVEKNMKDAKDKLESEMEDAYHEHQANLLRQDLMRRQEELRRMEELHNQEMQKRKEMQLRQEEERRRREEEMMIRQREMEEQMRRQREESYSRMGYMDPRERDMRMGGGGAMNMGDPYGSGGQKFPPLGGGGGIGYEANPGVPPATMSGSMMGSDMRTERFGQGGAGPVGGQGPRGMGPGTPAGYGRGREEYEGPNKKPRF", "notes": "expressed from transfected His-PSF vector or in vitro translated"}}, "key": {"PR protein": {"system": "PR protein", "test": "PR protein levels on over-expression of PSF in 293T cells", "format": "cell-based", "conditions": "over-expression in 293T cells"}, "androgen receptor": {"target": "T1, androgen receptor (Homo sapiens, UniProt P10275)", "T1 construct": "expressed in transfected cells; host or cells: PC-3(AR)2 prostate cancer cells", "T1 sequence (P10275 1-920)": "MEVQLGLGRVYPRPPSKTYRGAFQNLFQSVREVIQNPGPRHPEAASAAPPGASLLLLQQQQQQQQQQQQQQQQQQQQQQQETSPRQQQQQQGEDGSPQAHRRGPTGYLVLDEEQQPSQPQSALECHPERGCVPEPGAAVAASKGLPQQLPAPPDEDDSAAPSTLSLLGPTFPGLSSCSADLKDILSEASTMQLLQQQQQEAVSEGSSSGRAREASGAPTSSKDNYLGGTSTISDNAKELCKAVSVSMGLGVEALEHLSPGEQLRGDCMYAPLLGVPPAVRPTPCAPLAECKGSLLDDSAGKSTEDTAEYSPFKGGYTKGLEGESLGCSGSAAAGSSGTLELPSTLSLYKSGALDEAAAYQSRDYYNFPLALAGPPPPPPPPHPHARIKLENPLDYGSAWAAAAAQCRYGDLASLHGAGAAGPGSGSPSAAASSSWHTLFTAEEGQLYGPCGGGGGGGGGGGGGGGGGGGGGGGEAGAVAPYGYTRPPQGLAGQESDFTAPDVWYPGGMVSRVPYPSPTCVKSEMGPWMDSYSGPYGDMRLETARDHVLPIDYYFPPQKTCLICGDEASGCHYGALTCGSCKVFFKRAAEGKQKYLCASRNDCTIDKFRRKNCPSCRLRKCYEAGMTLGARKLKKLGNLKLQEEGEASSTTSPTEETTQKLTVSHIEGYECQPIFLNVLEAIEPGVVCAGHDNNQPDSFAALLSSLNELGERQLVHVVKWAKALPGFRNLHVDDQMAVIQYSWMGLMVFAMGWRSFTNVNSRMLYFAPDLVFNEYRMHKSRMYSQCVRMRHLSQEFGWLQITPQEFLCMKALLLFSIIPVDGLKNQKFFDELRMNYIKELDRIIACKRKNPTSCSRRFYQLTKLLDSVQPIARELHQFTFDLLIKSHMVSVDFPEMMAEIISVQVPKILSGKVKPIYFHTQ", "test": "DHT-induced AR transactivation in PC-3(AR)2 cells, MMTV-Luc reporter", "format": "cell-based", "description": "(§1) Prostate cancer cells (stable transfected with androgen receptor) were transiently transfected with PSF-A expression vector together with a MMTV-Luc reporter vector. Cells were treated with either vehicle or 1 nM DHT for at least 24 hours. Luciferase activities were measured and normalized by β-galactosidase acitvity. Data shown in FIG. 10 are the mean of three separate experiments performed in triplicate ±S.E. Note: the empty vector pcDNA3 was added to the DNA mixture to ensure that the amounts of CMV promoter in all the transfection assays are equal.\nas §1, with “(stably” for “(stable”, “PSF-F” for “PSF-A”, “11” for “10”\nPC-3(AR)2 cells are PC-3 cells rendered androgen sensitive by stable transfection of a human androgen receptor cDNA. PC-3(AR)2 cells were transiently transfected with a constant AR expression vector together without or with increasing doses of PSF-A vectors. […]"}}, "data": [{"molecule": "B1", "values": [{"measurement": "PR protein levels", "setting": "PR protein", "value": "reduced PR protein levels"}, {"measurement": "production/secretion of PSA", "setting": "androgen receptor", "value": "blocks"}, {"measurement": "androgen receptor activation of the MMTV promoter", "setting": "androgen receptor; PC-3(AR)2 cells, 1 nM DHT", "value": "blocks"}]}]}
